The values that follow come from US20240167082A1.

Where only a bound is given, the exact number is not on record here.

This assay has as its target CD3 (cell surface marker on Jurkat cells and on Ramos cells) (human) (UniProt P07766). The assay is described as follows: cell-based or functional assay.
UniProt P07766, sequence (P07766 23-207): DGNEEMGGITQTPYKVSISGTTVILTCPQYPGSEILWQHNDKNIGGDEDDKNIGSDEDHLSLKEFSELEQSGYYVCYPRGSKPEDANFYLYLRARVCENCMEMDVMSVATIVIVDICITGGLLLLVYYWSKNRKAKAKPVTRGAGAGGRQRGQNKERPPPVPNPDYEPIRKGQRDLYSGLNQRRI

Take “TotalSeqB anti-CD3 antibody (Biolegend cat no. 300477; anti-human CD3-totalseqB Ab, clone UCHT1)”: the share of drops with labelled cells that cross the Cy5 fluorescence threshold is greater than 95%; the time at which drops cross the Cy5 fluorescence threshold fell in the range of 20 to 50 min; the time at which drops cross the Cy5 fluorescence threshold, Jurkat cells in droplets lay in the range of 20 to 38 min; the time to Cy5 fluorescence in drops with Jurkat cells from a mixed Jurkat and mouse pool was 20 min.
